Biological target: Y2R_cysteine_deficient_eYFP (in HEK293 cells) (human, UniProt P49146 1-381, C58^1.40A | C103^2.57S | C151^3.53S | C272^6.39A | C316^7.44A | C342^7.70A)
Sequence (P49146 other isoform, or with tags, fused parts or gaps with the stated changes): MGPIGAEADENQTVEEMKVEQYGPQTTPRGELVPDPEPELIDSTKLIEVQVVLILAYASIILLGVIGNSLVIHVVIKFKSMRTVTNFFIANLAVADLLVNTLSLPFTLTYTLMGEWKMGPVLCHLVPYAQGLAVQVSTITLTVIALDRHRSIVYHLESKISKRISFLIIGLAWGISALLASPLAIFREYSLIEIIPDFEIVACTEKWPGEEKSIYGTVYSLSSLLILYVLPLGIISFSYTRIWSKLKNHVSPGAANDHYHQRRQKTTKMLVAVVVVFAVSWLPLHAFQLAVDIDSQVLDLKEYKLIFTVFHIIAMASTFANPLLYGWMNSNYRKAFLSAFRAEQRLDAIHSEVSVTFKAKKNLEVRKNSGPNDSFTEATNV

B1: Porcine neuropeptide Y (peptide)
peptide: not shown
modifications: C-terminal amide
IC50: 8.2 nM

Reference: paper PMC6405639 (2019)
